How the values were obtained:
[1] = target: human ETA-receptor (ET-receptor derived from phETIR) (human) (UniProt P25101); experiment: displacement of 50 pM 125I-ET-1 from COS-7 cells expressing the ETA-receptor
[2] = target: human ETB-receptor (ET-receptor derived from pHETBR31 and pHETBR34) (human) (UniProt P24530); experiment: displacement of 125I-ET-1 from COS-7 cells expressing the ETB-receptor
human ETB-receptor (ET-receptor derived from pHETBR31 and pHETBR34) (human), sequence (P24530 27-442 limits assumed, form in doubt): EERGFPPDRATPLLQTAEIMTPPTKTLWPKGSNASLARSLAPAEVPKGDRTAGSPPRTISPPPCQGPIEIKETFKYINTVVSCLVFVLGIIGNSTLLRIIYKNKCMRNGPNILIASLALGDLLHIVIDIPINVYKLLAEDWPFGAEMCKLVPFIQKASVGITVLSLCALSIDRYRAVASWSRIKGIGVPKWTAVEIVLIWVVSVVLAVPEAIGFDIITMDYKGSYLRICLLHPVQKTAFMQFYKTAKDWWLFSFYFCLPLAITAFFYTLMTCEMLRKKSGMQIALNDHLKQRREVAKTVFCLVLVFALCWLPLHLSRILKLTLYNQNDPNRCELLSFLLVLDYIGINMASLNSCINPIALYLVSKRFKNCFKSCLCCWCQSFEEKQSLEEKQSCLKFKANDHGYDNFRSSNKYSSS

human ETA-receptor (ET-receptor derived from phETIR) (human), sequence (P25101 21-427 limits assumed, form in doubt): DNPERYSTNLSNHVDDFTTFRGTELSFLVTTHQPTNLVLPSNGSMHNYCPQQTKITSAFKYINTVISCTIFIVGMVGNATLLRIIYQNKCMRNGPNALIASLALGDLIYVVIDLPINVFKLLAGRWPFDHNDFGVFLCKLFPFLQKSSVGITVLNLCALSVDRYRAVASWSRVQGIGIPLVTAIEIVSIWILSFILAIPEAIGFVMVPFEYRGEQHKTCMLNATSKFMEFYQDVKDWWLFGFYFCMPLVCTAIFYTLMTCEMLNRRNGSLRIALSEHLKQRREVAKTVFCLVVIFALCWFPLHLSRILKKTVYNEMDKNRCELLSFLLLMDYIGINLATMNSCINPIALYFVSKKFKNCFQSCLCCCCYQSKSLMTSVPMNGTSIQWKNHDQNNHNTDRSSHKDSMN

Row | IC50 [1] [nM] | IC50 [2] [nM] | Substance
1 | 6.1 | 1 | Endothelin 2 (from UniProt P20800 49-69) (peptide)
2 |  | 1 | Endothelin 3 (from UniProt P14138 97-117) (peptide)

From patent US20020082414A1
